The target in test [1] is T1, IL-15Rbetagamma heterodimer (human, UniProt P14784).
T1 chain 1: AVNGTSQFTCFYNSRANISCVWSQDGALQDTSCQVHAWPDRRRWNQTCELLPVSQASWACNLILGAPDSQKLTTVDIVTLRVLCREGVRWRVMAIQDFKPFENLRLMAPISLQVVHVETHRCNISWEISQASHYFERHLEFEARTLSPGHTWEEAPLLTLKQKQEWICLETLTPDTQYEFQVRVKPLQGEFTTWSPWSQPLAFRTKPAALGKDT
T1 chain 2: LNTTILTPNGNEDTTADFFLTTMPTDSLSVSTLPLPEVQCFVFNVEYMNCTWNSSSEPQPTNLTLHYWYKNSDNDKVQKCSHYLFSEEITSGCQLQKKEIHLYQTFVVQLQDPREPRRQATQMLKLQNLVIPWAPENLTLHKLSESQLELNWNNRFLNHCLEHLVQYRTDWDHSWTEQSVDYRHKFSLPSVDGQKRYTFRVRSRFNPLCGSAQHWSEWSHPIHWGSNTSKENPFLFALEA
Description: SPR, anti-human Fc capture.

For test [2], the target named is T1, IL-15Rbetagamma heterodimer. Description: SPR, PD1 capture. (In general: SPR reads the build-up and loss of mass on a sensor chip optically.)
In test [3] the target is T2, IL-15 (human, UniProt P40933). Description: SPR, anti-human Fc capture.
T2 sequence (P40933 49-162): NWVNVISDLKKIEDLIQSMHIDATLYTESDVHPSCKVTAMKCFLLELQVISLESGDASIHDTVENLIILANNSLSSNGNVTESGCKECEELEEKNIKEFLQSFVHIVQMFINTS
The target of test [4] is T2, IL-15. Description: SPR, PD1 capture.

The values below come from patent US20260347476 (published 2026).

B1: RV36:IL-15 complex (antibody)
chain 1: QVQLVQSGAEVKKPGASVKVSCKASGYSFSSFGISWVRQAPGQGLEWLGWISAFNGYTKYAQKFQDRVTMTTDTSTSTAYMELRSLRSDDTAVYYCARDPAAWPLQQSLAWFDPWGQGTMVTVSS
chain 2: QSVLTQPPSASGTPGQRVTISCSGSTSNLKRNYVYWYQQLPGTAPKLLIYRDRRRPSGVPDRFSGSKSGTSASLAISGLRSEDEADYYCAWYDRELSEWVFGGGTKLTVL
chain 3: not shown
B1: the results for the Kd in test [1] and in test [2] were 0.771 nM and 1.07 nM, respectively.

B2: RV15 IL-15 arm (antibody, V domains shown)
VH: QVQLVQSGAEVKKPGASVKVSCKASGYSFSSFGISWVRQAPGQGLEWLGWISAFNGYTKYAQKFQDRVTMTTDTSTSTAYMELRSLRSDDTAVYYCARDPAAWPLQQSLAWFDPWGQGTMVTVSS
VL: QSVLTQPPSASGTPGQRVTISCSGSTSNLKRNYVYWYQQLPGTAPKLLIYRDRRRPSGVPDRFSGSKSGTSASLAISGLRSEDEADYYCAWYDRELSEWVFGGGTKLTVL
Regarding B2, in test [3], binding was characterised by a dissociation constant (Kd) of 0.108 nM.

B3: RV17:IL-15 complex (antibody)
chain 1: QVQLVQSGAEVKKPGASVKVSCKASGYSFSSFGISWVRQAPGQGLEWLGWISAFNGYTKYAQKFQDRVTMTTDTSTSTAYMELRSLRSDDTAVYYCARDPAAWPLQQSLAWFDPWGQGTMVTVSS
chain 2: QSVLTQPPSASGTPGQRVTISCSGSTSNLKRNYVYWYQQLPGTAPKLLIYRDRRRPSGVPDRFSGSKSGTSASLAISGLRSEDEADYYCAWYDRELSEWVFGGGTKLTVL
chain 3: not shown
Take B3: the Kd – broadly, a measure of binding affinity in units of concentration – in test [1] is 0.99 nM.

B4: RV18:IL-15 complex (antibody)
chain 1: QVQLVQSGAEVKKPGASVKVSCKASGYSFSSFGISWVRQAPGQGLEWLGWISAFNGYTKYAQKFQDRVTMTTDTSTSTAYMELRSLRSDDTAVYYCARDPAAWPLQQSLAWFDPWGQGTMVTVSS
chain 2: QSVLTQPPSASGTPGQRVTISCSGSTSNLKRNYVYWYQQLPGTAPKLLIYRDRRRPSGVPDRFSGSKSGTSASLAISGLRSEDEADYYCAWYDRELSEWVFGGGTKLTVL
chain 3: not shown
As to B4, the Kd in test [1] came out at 1.02 nM; in test [2] it was 0.239 nM.

B5: RV18 IL-15 arm (antibody, V domains shown)
VH: QVQLVQSGAEVKKPGASVKVSCKASGYSFSSFGISWVRQAPGQGLEWLGWISAFNGYTKYAQKFQDRVTMTTDTSTSTAYMELRSLRSDDTAVYYCARDPAAWPLQQSLAWFDPWGQGTMVTVSS
VL: QSVLTQPPSASGTPGQRVTISCSGSTSNLKRNYVYWYQQLPGTAPKLLIYRDRRRPSGVPDRFSGSKSGTSASLAISGLRSEDEADYYCAWYDRELSEWVFGGGTKLTVL
In the case of B5, in test [3], the affinity, expressed as Kd, was 0.0769 nM.

B6: RV29 IL-15 arm (antibody, V domains shown)
VH: QVQLVQSGAEVKKPGASVKVSCKASGYSFSSFGISWVRQAPGQGLEWLGWISAFNGYTKYAQKFQDRVTMTTDTSTSTAYMELRSLRSDDTAVYYCARDPAAWPLQQSLAWFDPWGQGTMVTVSS
VL: QSVLTQPPSASGTPGQRVTISCSGSTSNLKRNYVYWYQQLPGTAPKLLIYRDRRRPSGVPDRFSGSKSGTSASLAISGLRSEDEADYYCAWYDRELSEWVFGGGTKLTVL
With B6, the Kd in test [4] is 0.339 nM; in test [3], 0.114 nM.

B7: RV1:IL-15 complex (antibody)
chain 1: QVQLVQSGAEVKKPGASVKVSCKASGYSFSSFGISWVRQAPGQGLEWLGWISAFNGYTKYAQKFQDRVTMTTDTSTSTAYMELRSLRSDDTAVYYCARDPAAWPLQQSLAWFDPWGQGTMVTVSS
chain 2: QSVLTQPPSASGTPGQRVTISCSGSTSNLKRNYVYWYQQLPGTAPKLLIYRDRRRPSGVPDRFSGSKSGTSASLAISGLRSEDEADYYCAWYDRELSEWVFGGGTKLTVL
chain 3: not shown
As to B7, binding in test [1] was put at a Kd of 0.705 nM.

B8: RV1 (anti-IL-15 mAb DISC0280) (antibody, V domains shown)
VH: QVQLVQSGAEVKKPGASVKVSCKASGYSFSSFGISWVRQAPGQGLEWLGWISAFNGYTKYAQKFQDRVTMTTDTSTSTAYMELRSLRSDDTAVYYCARDPAAWPLQQSLAWFDPWGQGTMVTVSS
VL: QSVLTQPPSASGTPGQRVTISCSGSTSNLKRNYVYWYQQLPGTAPKLLIYRDRRRPSGVPDRFSGSKSGTSASLAISGLRSEDEADYYCAWYDRELSEWVFGGGTKLTVL
The molecule B8 displayed a Kd in test [3] of 0.349 nM.

B9: RV19:IL-15 complex (antibody)
chain 1: QVQLVQSGAEVKKPGASVKVSCKASGYSFSSFGISWVRQAPGQGLEWLGWISAFNGYTKYAQKFQDRVTMTTDTSTSTAYMELRSLRSDDTAVYYCARDPAAWPLQQSLAWFDPWGQGTMVTVSS
chain 2: QSVLTQPPSASGTPGQRVTISCSGSTSNLKRNYVYWYQQLPGTAPKLLIYRDRRRPSGVPDRFSGSKSGTSASLAISGLRSEDEADYYCAWYDRELSEWVFGGGTKLTVL
chain 3: not shown
As for B9, in test [1], the Kd stood at 1.17 nM.

B10: RV15:IL-15 complex (antibody)
chain 1: QVQLVQSGAEVKKPGASVKVSCKASGYSFSSFGISWVRQAPGQGLEWLGWISAFNGYTKYAQKFQDRVTMTTDTSTSTAYMELRSLRSDDTAVYYCARDPAAWPLQQSLAWFDPWGQGTMVTVSS
chain 2: QSVLTQPPSASGTPGQRVTISCSGSTSNLKRNYVYWYQQLPGTAPKLLIYRDRRRPSGVPDRFSGSKSGTSASLAISGLRSEDEADYYCAWYDRELSEWVFGGGTKLTVL
chain 3: not shown
For B10, the Kd in test [1] came to 0.804 nM; in test [2], 0.722 nM.

B11: RV17 IL-15 arm (antibody, V domains shown)
VH: QVQLVQSGAEVKKPGASVKVSCKASGYSFSSFGISWVRQAPGQGLEWLGWISAFNGYTKYAQKFQDRVTMTTDTSTSTAYMELRSLRSDDTAVYYCARDPAAWPLQQSLAWFDPWGQGTMVTVSS
VL: QSVLTQPPSASGTPGQRVTISCSGSTSNLKRNYVYWYQQLPGTAPKLLIYRDRRRPSGVPDRFSGSKSGTSASLAISGLRSEDEADYYCAWYDRELSEWVFGGGTKLTVL
Molecule B11 came in with a Kd in test [3] of 0.106 nM.

B12: RV26:IL-15 complex (antibody)
chain 1: QVQLVQSGAEVKKPGASVKVSCKASGYSFSSFGISWVRQAPGQGLEWLGWISAFNGYTKYAQKFQDRVTMTTDTSTSTAYMELRSLRSDDTAVYYCARDPAAWPLQQSLAWFDPWGQGTMVTVSS
chain 2: QSVLTQPPSASGTPGQRVTISCSGSTSNLKRNYVYWYQQLPGTAPKLLIYRDRRRPSGVPDRFSGSKSGTSASLAISGLRSEDEADYYCAWYDRELSEWVFGGGTKLTVL
chain 3: not shown
B12: the Kd is 1.36 nM in test [1] and 1.53 nM in test [2].

B13: RV31:IL-15 complex (antibody)
chain 1: QVQLVQSGAEVKKPGASVKVSCKASGYSFSSFGISWVRQAPGQGLEWLGWISAFNGYTKYAQKFQDRVTMTTDTSTSTAYMELRSLRSDDTAVYYCARDPAAWPLQQSLAWFDPWGQGTMVTVSS
chain 2: QSVLTQPPSASGTPGQRVTISCSGSTSNLKRNYVYWYQQLPGTAPKLLIYRDRRRPSGVPDRFSGSKSGTSASLAISGLRSEDEADYYCAWYDRELSEWVFGGGTKLTVL
chain 3: not shown
Regarding B13, the Kd in test [1] came out at 0.979 nM; in test [2], 0.981 nM.

B14: RV19 IL-15 arm (antibody, V domains shown)
VH: QVQLVQSGAEVKKPGASVKVSCKASGYSFSSFGISWVRQAPGQGLEWLGWISAFNGYTKYAQKFQDRVTMTTDTSTSTAYMELRSLRSDDTAVYYCARDPAAWPLQQSLAWFDPWGQGTMVTVSS
VL: QSVLTQPPSASGTPGQRVTISCSGSTSNLKRNYVYWYQQLPGTAPKLLIYRDRRRPSGVPDRFSGSKSGTSASLAISGLRSEDEADYYCAWYDRELSEWVFGGGTKLTVL
On to B14, for which, in test [3], the Kd was found to be 0.0847 nM.

B15: RV29:IL-15 complex (antibody)
chain 1: QVQLVQSGAEVKKPGASVKVSCKASGYSFSSFGISWVRQAPGQGLEWLGWISAFNGYTKYAQKFQDRVTMTTDTSTSTAYMELRSLRSDDTAVYYCARDPAAWPLQQSLAWFDPWGQGTMVTVSS
chain 2: QSVLTQPPSASGTPGQRVTISCSGSTSNLKRNYVYWYQQLPGTAPKLLIYRDRRRPSGVPDRFSGSKSGTSASLAISGLRSEDEADYYCAWYDRELSEWVFGGGTKLTVL
chain 3: not shown
Take B15: the Kd in test [1] came out at 0.732 nM; in test [2], 0.72 nM.

B16: RV32:IL-15 complex (antibody)
chain 1: QVQLVQSGAEVKKPGASVKVSCKASGYSFSSFGISWVRQAPGQGLEWLGWISAFNGYTKYAQKFQDRVTMTTDTSTSTAYMELRSLRSDDTAVYYCARDPAAWPLQQSLAWFDPWGQGTMVTVSS
chain 2: QSVLTQPPSASGTPGQRVTISCSGSTSNLKRNYVYWYQQLPGTAPKLLIYRDRRRPSGVPDRFSGSKSGTSASLAISGLRSEDEADYYCAWYDRELSEWVFGGGTKLTVL
chain 3: not shown
Regarding B16, the Kd was found to be 0.742 nM in test [1] and 1.45 nM in test [2].

B17: RV26 IL-15 arm (antibody, V domains shown)
VH: QVQLVQSGAEVKKPGASVKVSCKASGYSFSSFGISWVRQAPGQGLEWLGWISAFNGYTKYAQKFQDRVTMTTDTSTSTAYMELRSLRSDDTAVYYCARDPAAWPLQQSLAWFDPWGQGTMVTVSS
VL: QSVLTQPPSASGTPGQRVTISCSGSTSNLKRNYVYWYQQLPGTAPKLLIYRDRRRPSGVPDRFSGSKSGTSASLAISGLRSEDEADYYCAWYDRELSEWVFGGGTKLTVL
Molecule B17 came in with a Kd in test [3] of 0.396 nM.

B18: RV37 IL-15 arm (antibody, V domains shown)
VH: QVQLVQSGAEVKKPGASVKVSCKASGYSFSSFGISWVRQAPGQGLEWLGWISAFNGYTKYAQKFQDRVTMTTDTSTSTAYMELRSLRSDDTAVYYCARDPAAWPLQQSLAWFDPWGQGTMVTVSS
VL: QSVLTQPPSASGTPGQRVTISCSGSTSNLKRNYVYWYQQLPGTAPKLLIYRDRRRPSGVPDRFSGSKSGTSASLAISGLRSEDEADYYCAWYDRELSEWVFGGGTKLTVL
Consider B18, for which the equilibrium dissociation constant (Kd) was found to be 0.227 nM in test [4] and 0.0664 nM in test [3].
